In patent US12226490B2, “Anti-ROR1 antibody conjugates, compositions comprising anti ROR1 antibody conjugates, and methods of making and using anti-ROR1 antibody conjugates preliminary class” (Sutro Biopharma, Inc., priority 2022, dated 2025):

Legend:
human ROR1-Fz = biological target: T1, human ROR1-Fz (Homo sapiens, UniProt Q01973); experiment: Biacore off-rate and kinetic analysis, ROR1 frizzled domain; format: binding; conditions: for kd1 / ka1: Sample ROR1 Fz, SPR; for ka1: 1-1 Langmuir; for Biacore human ROR1-Fz ka / Biacore human ROR1-Fz kd: Table 11 (SP34 light chain)
T1 construct: Frizzled (Fz, residues 165-305); HIS6 (C); purchased Acro Biosystems; host or cells: HEK293
T1 sequence (Q01973 165-305): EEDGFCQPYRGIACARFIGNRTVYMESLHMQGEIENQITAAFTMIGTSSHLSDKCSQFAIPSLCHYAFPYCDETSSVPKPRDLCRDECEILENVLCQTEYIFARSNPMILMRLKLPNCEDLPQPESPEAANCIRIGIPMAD
Method: Anti-Fc polyclonal antibodies were immobilized onto a CM5 chip (GE Life Sciences) using amine coupling chemistry (from Amine Coupling Kit, GE Life Sciences). The immobilization steps were carried out at a flow rate of 25 μL/min in 1×HBS-EP+ buffer (GE Life Sciences; 10× Stock diluted before use). The sensor surfaces were activated for 7 min with a mixture of NHS (0.05 M) and EDC (0.2 M). The Anti-Fc antibodies were injected over all 4 flow cells at a concentration of 25 ug/ml in 10 mM sodium acetate, pH 4.5, for 7 min. Ethanolamine (1 M, pH 8.5) was injected for 7 min to block any remaining activated groups. An average of 12,000 response units (RU) of capture antibody was immobilized on each flow cell.
Off-rate and kinetic binding experiments were performed at 25° C. using 1×HBS-EP+ buffer. Test and control antibodies were injected over the anti-Fc surface at concentrations of 5-10 μg/mL for 12 seconds at a flow rate of 10 μL/min on flow cells 2, 3 and 4, followed by a buffer wash for 30 seconds at the same flow rate. Kinetic characterization of antibody samples was carried out with a range of antigen concentrations from 1-100 nM and 1 injection of 0 nM antigen (for example, 100, 50, 25, 6.25, 1.56 and 0 nM). After capturing ligand (antibody) on the anti-Fc surface, the analyte (hROR1, Fz or Kr domains, Acro Biosystems, Delaware) was bound for 180 seconds, followed by a 600 second dissociation phase at a flow rate of 50 μL/min. Between each ligand capture and analyte binding cycle, regeneration was carried out using 2 injections of 10 mM Glycine pH 2.0 for 30 seconds at 30 μL/min, followed by a 30 second buffer wash step.
The data was fit with the Biacore T200 Evaluation software, using a 1-1 Langmuir binding model. KD (affinity, nM) was determined as a ratio of the kinetic rate constants calculated from the fits of the association and dissociation phases.
For anti-CD3-LC-containing IgGs that had detectable ROR1-binding in ELISA (1944-A07 and 1987-C05 variants), those antibodies were further tested for binding by surface plasmon resonance (SPR). Binding kinetics were assessed to the ROR1-frizzled domain (hROR1-Fz) or the ROR1-extracellular domain (hROR1) for 1944-A07 and 1987-C05 variants, respectively. Briefly, anti-ROR1 antibodies were captured via anti-human Fc polyclonal antibodies immobilized to a CM5 chip, and ROR1 recombinant proteins were flowed across the surface to assess binding kinetics. hROR1 or hROR1-Fz domain (Acro Biosystems, Delaware) binding was tested at 100, 50, 25, 6.25, 1.5625 nM. The data was fit with the Biacore™ T200 Evaluation software, using a 1-1 Langmuir binding model. KD (affinity, nM) was determined as a ratio of the kinetic rate constants calculated from the fits of the association and dissociation phases.

[1] = Differential scanning fluorimetry (protein thermal shift; TM1 Fc, TM2 Fab); format: physicochemical; conditions: melting temperature of the Fab domain; Table 11
Method: A protein thermal shift assay was carried out by mixing the protein to be assayed with an environmentally sensitive dye (SYPRO Orange, Life Technologies Cat #S-6650) in a phosphate buffered solution (PBS), and monitoring the fluorescence of the mixture in real time as it underwent controlled thermal denaturation. Protein solutions between 0.2-2 mg/mL were mixed at a 1-1 volumetric ratio with a 1-500 PBS-diluted solution of SYPRO Orange (SYPRO Orange stock dye is 5000× in DMSO). 10 μL aliquots of the protein-dye mixture were dispensed in quadruplicate in a 384-well microplate (Bio-Rad Cat #MSP-3852), and the plate was sealed with an optically clear sealing film (Bio-Rad Cat #MSB-1001) and placed in a 384-well plate real-time thermocycler (Bio-Rad CFX384 Real Time System). The protein-dye mixture was heated from 25° C. to 95° C., at increments of 0.1° C. per cycle (˜1.5° C. per minute), allowing 3 seconds of equilibration at each temperature before taking a fluorescence measurement. At the end of the experiment, the transition melting temperatures (TM1 and TM2) were determined using the Bio-Rad CFX manager software. TM1 represents the melting temperature of the Fc domain. TM2 represents the melting temperature of the Fab domain.
For the thermal stability of an antibody, the first melting peak (Tm1) coincides with the unfolding of the CH2 domain (FC stability), while the second melting peak (Tm2) occurs upon unfolding of the Fab domain.

Molecule	kd1 (human ROR1-Fz)	ka1 (human ROR1-Fz)	TM2 [1]	Biacore human ROR1-Fz ka (human ROR1-Fz)	Biacore human ROR1-Fz kd (human ROR1-Fz)
1944-A07 HC w/hUCHT1 LC3: HC of lead antibody 1944-A07 co-expressed with LC "derived from anti-CD3 antibodies": hUCHT1-LC3 (antibody, V domains shown) VH: EVQLVESGGGLVQPGGSLRLSCAASGFNITGYYIHWVRQAPGKGLEWVGYISPNSGSTYYADSVKGRFTISADTSKNTAYLQMNSLRAEDTAVYYCARDSRRYVRPFDYWGQGTLVTVSS VL: DIQMTQSPSTLSASVGDRVTITCRASQDIRNYLNWYQQKPGKAPKLLIYYTSRLHSGVPSRFSGSGSGTEYTLTISSLQPDDFATYYCQQGNTLPWTFGGGTKVEIK	0.119 s⁻¹	1.85e+06 M⁻¹ s⁻¹	–	–	–
SRP2196-A02 (antibody, V domains shown) VH: EVQLVESGGGLVQPGGSLRLSCAASGFNITGYYIHWVRQAPGKGLEWVGQISPNSGATHDADSVKGRFTISADTSKNTAYLQMNSLRAEDTAVYYCARDSRRYVRGWDYWGQGTLVTVSS VL: QAVVTQESALTTSPGETVTLTCRSSTGAVTTSNYANWVQEKPDHLFTGLIGGTNKRAPGVPARFSGSLIGDKAALTITGAQTEDEAIYFCALWYSNLWVFGGGTKLTVL	–	–	71 °C	–	–
SRP2196-A06 (antibody, V domains shown) VH: EVQLVESGGGLVQPGGSLRLSCAASGFNITGYYIHWVRQAPGKGLEWVGQISPNSGSTHQADSVKGRFTISADTSKNTAYLQMNSLRAGDTAVYYCARDSRRYVRGWDYWGQGTLVTVSS VL: QAVVTQESALTTSPGETVTLTCRSSTGAVTTSNYANWVQEKPDHLFTGLIGGTNKRAPGVPARFSGSLIGDKAALTITGAQTEDEAIYFCALWYSNLWVFGGGTKLTVL	–	–	70 °C	180000 M⁻¹ s⁻¹	0.00069 s⁻¹
SRP2196-A03 (antibody, V domains shown) VH: EVQLVESGGGLVQPGGSLRLSCAASGFNITQYHIHWVRQAPGKGLEWVGYISPNSGSTHEADSVKGRFTISADTSKNTAYLQMNSLRAEDTAVYYCARDSRRYVRGWDYWGQGTLVTVSS VL: QAVVTQESALTTSPGETVTLTCRSSTGAVTTSNYANWVQEKPDHLFTGLIGGTNKRAPGVPARFSGSLIGDKAALTITGAQTEDEAIYFCALWYSNLWVFGGGTKLTVL	–	–	70 °C	169000 M⁻¹ s⁻¹	0.000275 s⁻¹
1944-A07 HC w/hSP34 LC3: HC of lead antibody 1944-A07 co-expressed with LC "derived from anti-CD3 antibodies": hSP34-LC3 (antibody, V domains shown) VH: EVQLVESGGGLVQPGGSLRLSCAASGFNITGYYIHWVRQAPGKGLEWVGYISPNSGSTYYADSVKGRFTISADTSKNTAYLQMNSLRAEDTAVYYCARDSRRYVRPFDYWGQGTLVTVSS VL: QTVVTQEPSLTVSPGGTVTLTCGSSTGAVTSGYYPNWFQQKPGQAPRGLIGGTKFLAPGTPARFSGSLLGGKAALTLSGVQPEDEAEYYCALWYSNRWVFGGGTQLTVTG	0.00228 s⁻¹	360000 M⁻¹ s⁻¹	–	–	–
SRP2196-A05 (antibody, V domains shown) VH: EVQLVESGGGLVQPGGSLRLSCAASGFNITNYYIHWVRQAPGKGLEWVGYISPNSGATYQADSVKGRFTISADTSKNTAYLQMNSLRAEDTAVYYCARDSRRYVRSWDYWGQGTLVTVSS VL: QAVVTQESALTTSPGETVTLTCRSSTGAVTTSNYANWVQEKPDHLFTGLIGGTNKRAPGVPARFSGSLIGDKAALTITGAQTEDEAIYFCALWYSNLWVFGGGTKLTVL	–	–	71 °C	175000 M⁻¹ s⁻¹	0.000682 s⁻¹
SRP2196-A08 (antibody, V domains shown) VH: EVQLVESGGGLVQPGGSLRLSCAASGFNITGYYIHWVRQAPGKGLEWVGYISPNSGSTYKADSVKGRFTISADTSRNTAYLQMNSLRAEDTAVYYCARDSRRYVRSWDYWGQGTLVTVSS VL: QAVVTQESALTTSPGETVTLTCRSSTGAVTTSNYANWVQEKPDHLFTGLIGGTNKRAPGVPARFSGSLIGDKAALTITGAQTEDEAIYFCALWYSNLWVFGGGTKLTVL	–	–	69 °C	183000 M⁻¹ s⁻¹	0.00078 s⁻¹
SRP2196-A04 (antibody, V domains shown) VH: EVQLVESGGGLVQPGGSLRLSCAASGFNISPYYIHWVRQAPGKGLEWVGQIYPISGHTYQADSVKGRFTISADTSKNTAYLQMNSLRAEDTAVYYCARESRRYVGPFGYWGQGTLVTVSS VL: QAVVTQESALTTSPGETVTLTCRSSTGAVTTSNYANWVQEKPDHLFTGLIGGTNKRAPGVPARFSGSLIGDKAALTITGAQTEDEAIYFCALWYSNLWVFGGGTKLTVL	–	–	–	139000 M⁻¹ s⁻¹	0.000343 s⁻¹
SRP1944-A07 w SP34 LC3 (antibody, V domains shown) VH: EVQLVESGGGLVQPGGSLRLSCAASGFNITGYYIHWVRQAPGKGLEWVGYISPNSGSTYYADSVKGRFTISADTSKNTAYLQMNSLRAEDTAVYYCARDSRRYVRPFDYWGQGTLVTVSS VL: QTVVTQEPSLTVSPGGTVTLTCGSSTGAVTSGYYPNWFQQKPGQAPRGLIGGTKFLAPGTPARFSGSLLGGKAALTLSGVQPEDEAEYYCALWYSNRWVFGGGTQLTVTG	–	–	–	597000 M⁻¹ s⁻¹	0.0085 s⁻¹
SRP2196-B05 (antibody, V domains shown) VH: EVQLVESGGGLVQPGGSLRLSCAASGFNITGYYIHWVRQAPGKGLEWVGQISPNSGATYHADSVKGRFTISADTSKNTAYLQMNSLRAEDTAVYYCARDSRRYVRGWDYWGQGTLVTVSS VL: QAVVTQESALTTSPGETVTLTCRSSTGAVTTSNYANWVQEKPDHLFTGLIGGTNKRAPGVPARFSGSLIGDKAALTITGAQTEDEAIYFCALWYSNLWVFGGGTKLTVL	–	–	73 °C	–	–
SRP2196-A07 (antibody, V domains shown) VH: EVQLVESGGGLVQPGGSLRLSCAASGFNITGYYIHWVRQAPGKGLEWVGQISPNSGSTYYADSVKGRFTISADTSKNTAYLQMSSLRAEDTAVYYCARDSRRYVRGWDYWGQGTLVTVSS VL: QAVVTQESALTTSPGETVTLTCRSSTGAVTTSNYANWVQEKPDHLFTGLIGGTNKRAPGVPARFSGSLIGDKAALTITGAQTEDEAIYFCALWYSNLWVFGGGTKLTVL	–	–	74 °C	186000 M⁻¹ s⁻¹	0.00064 s⁻¹
SRP2196-A01 (antibody, V domains shown) VH: EVQLVESGGGLVQPGGSLRLSCAASGFNITGYYIHWVRQAPGKGLEWVGQISPNSGYTYYADSVKGRFTISADTSKNTAYLQMNSLRAEDTAVYYCARDSRRYVRGWDYWGQGTLVTVSS VL: QAVVTQESALTTSPGETVTLTCRSSTGAVTTSNYANWVQEKPDHLFTGLIGGTNKRAPGVPARFSGSLIGDKAALTITGAQTEDEAIYFCALWYSNLWVFGGGTKLTVL	–	–	74 °C	–	–
